# According to IntAct's records for PubMed 17955262:
# B1: Norrin (Homo sapiens), Q00604 (parent)
# chain: MRKHVLAASFSMLSLLVIMGDTDSKTDSSFIMDSDPRRCMRHHYVDSISHPLYKCSSKMVLLARCEGHCSQASRSEPLVSFSTVLKQPFRSSCHCCRPQTSKLKALRLRCSGGMRLTATYRYILSCHCEECNS
# B2: Frizzled-4 (Homo sapiens), Q9ULV1 (parent)
# chain: MAWRGAGPSVPGAPGGVGLSLGLLLQLLLLLGPARGFGDEEERRCDPIRISMCQNLGYNVTKMPNLVGHELQTDAELQLTTFTPLIQYGCSSQLQFFLCSVYVPMCTEKINIPIGPCGGMCLSVKRRCEPVLKEFGFAWPESLNCSKFPPQNDHNHMCMEGPGDEEVPLPHKTPIQPGEECHSVGTNSDQYIWVKRSLNCVLKCGYDAGLYSRSAKEFTDIWMAVWASLCFISTAFTVLTFLIDSSRFSYPERPIIFLSMCYNIYSIAYIVRLTVGRERISCDFEEAAEPVLIQEGLKNTGCAIIFLLMYFFGMASSIWWVILTLTWFLAAGLKWGHEAIEMHSSYFHIAAWAIPAVKTIVILIMRLVDADELTGLCYVGNQNLDALTGFVVAPLFTYLVIGTLFIAAGLVALFKIRSNLQKDGTKTDKLERLMVKIGVFSVLYTVPATCVIACYFYEISNWALFRYSADDSNMAVEMLKIFMSLLVGITSGMWIWSAKTLHTWQKCSNRLVNSGKVKREKRGNGWVKPGKGSETVV
# Variants of: B1
# Details: with fzd4_human FZD4, Q9ULV1
row,Variant,effect of a mutation on the interaction
1,MRKHVLAASFSMLSLLVIMGDTDSKTDSSFIMDSDPRRCMRHHYVDSISHPLYDCSSKMVLLARCEGHCSQASRSEPLVSFSTVLKQPFRSSCHCCRPQTSKLKALRLRCSGGMRLTATYRYILSCHCEECNS [K54D],decreasing interaction
2,MRKHVLAASFSMLSLLVIMGDTDSKTDSSFIMDSDPRRCMRHHYVDSISHPLYKCSSKMVLLARCEGHCSQASRSEPLVSFSTVLKQPFRSSCHCCRPQTSKLKALRLRCSGGMLLTATYRYILSCHCEECNS [R115L],decreasing interaction

# Variants of: B2
# Details: with ndp_human NDP, Q00604
row,Variant,effect of a mutation on the interaction
1,MAWRGAGPSVPGAPGGVGLSLGLLLQLLLLLGPARGFGDEEERRCDPIRISMCQNLGYNVTKMPNLVGHELQTDAELQLTTFTPLIQYGCSSQLQFFLCSVYVPVCTEKINIPIGPCGGMCLSVKRRCEPVLKEFGFAWPESLNCSKFPPQNDHNHMCMEGPGDEEVPLPHKTPIQPGEECHSVGTNSDQYIWVKRSLNCVLKCGYDAGLYSRSAKEFTDIWMAVWASLCFISTAFTVLTFLIDSSRFSYPERPIIFLSMCYNIYSIAYIVRLTVGRERISCDFEEAAEPVLIQEGLKNTGCAIIFLLMYFFGMASSIWWVILTLTWFLAAGLKWGHEAIEMHSSYFHIAAWAIPAVKTIVILIMRLVDADELTGLCYVGNQNLDALTGFVVAPLFTYLVIGTLFIAAGLVALFKIRSNLQKDGTKTDKLERLMVKIGVFSVLYTVPATCVIACYFYEISNWALFRYSADDSNMAVEMLKIFMSLLVGITSGMWIWSAKTLHTWQKCSNRLVNSGKVKREKRGNGWVKPGKGSETVV [M105V],decreasing interaction
